# Paper PMC2173848 (The Journal of Cell Biology, 2002)
# T1: GST-Sec34p (S. cerevisiae, UniProt P40094 1-801)
# T1 sequence (looked up): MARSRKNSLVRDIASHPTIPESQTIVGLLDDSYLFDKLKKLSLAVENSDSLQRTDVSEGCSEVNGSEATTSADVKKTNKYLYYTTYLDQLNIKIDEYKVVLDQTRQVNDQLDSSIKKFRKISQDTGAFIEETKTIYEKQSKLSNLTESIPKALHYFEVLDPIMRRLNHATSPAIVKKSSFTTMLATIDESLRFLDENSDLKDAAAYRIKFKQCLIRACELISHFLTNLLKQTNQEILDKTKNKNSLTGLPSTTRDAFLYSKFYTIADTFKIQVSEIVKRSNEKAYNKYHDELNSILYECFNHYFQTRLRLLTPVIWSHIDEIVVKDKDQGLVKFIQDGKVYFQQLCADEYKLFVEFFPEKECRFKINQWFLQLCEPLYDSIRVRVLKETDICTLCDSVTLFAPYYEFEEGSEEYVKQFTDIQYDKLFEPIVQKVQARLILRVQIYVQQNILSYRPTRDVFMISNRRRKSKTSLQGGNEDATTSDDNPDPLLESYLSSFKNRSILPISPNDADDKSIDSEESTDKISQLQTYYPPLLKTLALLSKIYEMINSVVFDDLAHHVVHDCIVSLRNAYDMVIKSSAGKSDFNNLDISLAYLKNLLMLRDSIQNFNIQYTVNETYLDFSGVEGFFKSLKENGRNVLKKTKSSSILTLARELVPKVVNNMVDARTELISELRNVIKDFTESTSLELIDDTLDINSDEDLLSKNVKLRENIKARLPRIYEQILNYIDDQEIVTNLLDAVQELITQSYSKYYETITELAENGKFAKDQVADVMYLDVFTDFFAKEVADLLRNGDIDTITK
# B1: Sec35p (natural protein, S. cerevisiae (endogenous in yeast), UniProt P53271 1-262, looked up)
# chain: MDFLNDDELDLDLPVTAEISKELFATEIEKYRESETNGTDVDNFDVDRFLVQKNFHYLPLDSLIRDLSGLSQKMVQTLLEQIRSNYDDYLTFSNTYTDEENETLINLEKTQSDLQKFMTQLDHLIKDDISNTQEIIKDVLEYLKKLDEIYGSLRNHSQLTEALSLGKRLSKSLHEMCGIEPLEEEICSGLIEQLYKLITASRRILESCADSNSPYIHHLRNDYQDLLQEFQISLKILTEKCLENPSSLQNLSLTLVSIIKTA
# Target: T1, GST-Sec34p
# Assay: pull-down
binder,measurement,value
B1,percent recovered on the beads,~3%
